Experimental findings from the DeepSol protein solubility set are described below.

The nature of this data set: soluble on expression in E. coli; label from the status in PepcDB or PDB records.
For “MWIEIICGLVIYKLVRRFFYDDEFSDVETSDSTALFSVAHRLEKLYGGKAYVGLRIPDADTASRQDIDVVLVTKGDVVVISVKNLSGIVTVTSDGSWVCEGGKHHTTETFPDPLAEVKKQASVLESYLEQRGVTLLEGNVSCKVVIPNPSFRTIHAFPSEVITYEDWQQLKPVSKSKISGWVKGAFSTGKEMQESSHQKLNFILGTAPTWDRVELKSSKIVLGEFLEFKGKQEDTLALRNIKRSKVDRVSIQKTSMFGL”, the “soluble on expression in E. coli” value is recorded as “not soluble”.

With “MTQKEISIIHPRPSSIVAALYTLRDLNVDVAILHGPPGCSFKHARLLEEDGIHVVTTGLDENGFVFGGHDKLVQVINKSIELFNPKILGVVGTCASMIIGEEMHEAVLEANPDIPVIEVEVHAGYHNNTKGVIFALESALDAGIIDHKEFERQEYLEHHHHHH”, the “soluble on expression in E. coli” value is reported as “not soluble”.

On to “MGSSHHHHHHSSGLVPRGSTSEVIEDEKQFYSKAKTYWKQIPPTVDGMLGGYGHISSIDINSSRKFLQRFLREGPNKTGTSCALDCGAGIGRITKRLLLPLFREVDMVDITEDFLVQAKTYLGEEGKRVRNYFCCGLQDFTPEPDSYDVIWIQWVIGHLTDQHLAEFLRRCKGSLRPNGIIVIKDNMAQEGVILDDVDSSVCRDLDVVRRIICSAGLSLLAEERQENLPDEIYHVYSFALR”, for which the “soluble on expression in E. coli” value is listed as “soluble”.

On to “MSEKTNPNLTLHDVTDKLEGDDEKYATALKTCGEVFAEVEAIFNDENYLSHAGWFKDESNNEGDVVYAKDTPHGRMVTISTELPMPVEDVMKETWNGMEALPEWNQNINFAARIAAPTSNFDIVTYGNNDVLVVSGREFVSARIWRKVGDGFILASRSVTVPSFKSKHKGKVRAHLHLAGARFRPNPENPETTLTDVVMLADLKGYLPKMIVNQVIGRIMIMDTVTNRRHFQNLKAKRTNN”, for which the “soluble on expression in E. coli” value is “not soluble”.

“MSLRTTDDLPNALPPALESMTLLVAAVIVHDQATNRVVLLQRSENAKFAQGMWDLPVGKSEPGEPITETAVRELHEETGLTVKPEALMVAHIIHGSWGVEAPNGFLTVVFATHEWTGEPENREPRKHSQVRWVDADAIPEECVDTTASALHHYLSGGAQVSLDGWLPKEGHHHHHH”: the “soluble on expression in E. coli” value was “soluble”.

Take “EVQLVESGGDLVKPGGSLKLSCAASGFTFSSYGMSWIRQTPDKRLEWVATISSGGSYTYYPDSVKGRFTISRDNAKNTLYLQMSSLKSEDTAMFYCARQTTMTYFAYWGQGTLVTVSAAKTTPPSVYPLAPGSAAQTNSMVTLGCLVKGYFPEPVTVTWNSGSLSSGVHTFPAVLQSDLYTLSSSVTVPSSPRPSETVTCNVAHPASSTKVDKKIEPA”: the “soluble on expression in E. coli” value was “soluble”.

“MGSDKIHHHHHHMTDLGLYRHLDQMAPWNDRLQVLEVIGVSDEAPDVKTFTFRSDNQTWFRYKPGQFVTLELPTPDGPLMRTYTLSSSPSRPFSIAVTVKAQAGSIGTRWMFDHLVPGSHVKAYGPSGDFSLHSHPAAKYLFISAGSGVTPMMSMLRWLNDCAPWTDVGFVNCARRPEEIIFRKELELLGGHMPGLSLGFMIEERSSREGWYGHMGRIDAIRLPLLAPDFREREIFCCGPDPFMRAVRGMLEAAGFDMTKYHQESFAAPAVEEVPAPFVSPGEDGVTVPVEATPIRFALSVVDAECVAGQTVLQTARASGVRIPAACEFGLCGTCKVKKVSGAVEMSHNGGILDHEIDDGFILACCSKPLSALEIEA”: the “soluble on expression in E. coli” value is on record as “not soluble”.

For “SISQQTVWNQMATVRTPLNFDSSKQSFCQFSVDLLGGGISVDKTGDWITLVQNSPISNLLRVAAWKKGCLMVKVVMSGNAAVKRSDWASLVQVFLTNSNSTEHFDACRWTKSEPHSWELIFPIEVCGPNNGFEMWSSEWANQTSWHLSFLVDNPKQSTTFDVLLGISQNFEIAGNTLMPAFSVPQANARSSENAESSA”, the “soluble on expression in E. coli” value is recorded as “soluble”.

Turning to “MATSGTYVTEVPLKGSAKNHYKRWKSENQLFPDAIGHHIQGVTVHEGDWDSHGAIKSWNYTCDGKQEVFKEKRELDDQKMAVTFRGLDGHVMEQLKVYDVIFQFVPKSQEGCVCKVTMFWEKRYEDSPEPIKYMKFVTSLAADMDDHILKNQSKA”, the “soluble on expression in E. coli” value is given as “soluble”.

Regarding “MGSDKIHHHHHHMRILRVAQDIFPDKVGGAPYHIHALSRDQAEMGHDVTVLTVSNDQSKPQTEQRAGYTLVRLSPRIELFGNALFAGTVKYLRNAREYDVVHAHSHLFFSSNLTAAYSRVTDIPLAVTCHGLMSQRVPEWFSRFHLNTVGRFTYNAADVLFSYTAPERERLRDLGVSSDIRVIHNGIDVDRFTPVGATYDRITDATGPAVVFVGRLVEGKRPRDVLKAFQTVQNNIPEAKLFFCGDGPLRDKLEQIVERENMRESIRFLERVPYQEMPAVYRAADLFVLASRTEGFPRSVMESMACATPILSTRLEQTEQVIEQAGRTVPVGDTTALADAMSSMLDDRAALRKLGQAGREIVMREYDWSETVEQTTQTLGTISTSTPSQQQVDSGQAEEQVIPAGSNTEHEQ”, the “soluble on expression in E. coli” value is recorded as “not soluble”.

In the case of “MGSDKIHHHHHHMTTRERIIETAITLFNEKGTKAVTTNHIAAAMEISPGNLYYHFRNKEEIIRAIFDQMDAVGFEDYEQIIAEHPAGSLAAMEETFLMIQRFNWRYRFFKRELTSLILSDPLLREKHLRVHQAMLRLVRHSIKSSIAQGVLRPMEEDELGLFAEEIWLLTLFWLNYLEVGGEDVTESTLRRGNELVRRTVCCRLTEEGARMLGRSGPAAP”, the “soluble on expression in E. coli” value was “not soluble”.

“MAAPASSATLPSVLQLTANTSAGGKRPSRAVTMPALKQAAKAAAAAPSPSPSFHVFADLPDHLLCSPDNSVWVYAQHTLSFLTSEAAAQAKLGRKVQRMMREAQRQYDISCAFFHSMSSDEQMAEVLRVGSGGGALSLPPAMTAATGTPAKSDRKRLTGVHRALRDAWPTWRGPNMSDAANSLTAREVGGAGESESSENRYSAGLRVNIVLDIVASRKTLRTVPLRSRPYRLAEYLYQLVMQPSATQRATAAPALGDMASHVRSLIIGISDADTTLVGCHIVCPYRHLTSPTPMMMRLRRAIEGAADQERARALAAAEAANTTVSGLDTQWQASSAAAAAEAAASDAAPSPLRSLVASHLAHYRRVDALFPAPYVRVPPQSLEQIDQNRLILCTPGKLLDG”: the “soluble on expression in E. coli” value is given as “not soluble”.

On to “MAKYSEQFKLTVVKAYLAGNIGFRKVSSQFSIDSSLLRRWVANYKSHGHTGHRKPGLRYSEAFKRSVLEHKREHGLSLRQTAAHFGIGDPGQIVIWEQQHYSNDLAPYVPKRRKSVAMPKKPYPTAPVIDDDTQKTRDQLMAELEYLRMENAYLKKLEELKEQQRRQKKKPLEHHHHHH”, for which the “soluble on expression in E. coli” value is reported as “soluble”.

Take “MSLKTVEDNRTSLTDQVLKGTLIQDKLYESNKYYPIYGSSELGKDDPFNPAIALNKHNANKKAFLLGAGGSTDLINAIELASQYDKLKGKKLTFIISPQWFTNHGLTNQNFDARMSQTQINQMFQQKNMSTELKRRYAQRLLQFPHVHNKEYLKSYAKNPKETKDSYISGFKENQLIKIEAIKSLFAMDKSPLEHVKPATKPDASWDEMKQKAVEIGKADTTSNKFGIRDQYWKLIQESKRKVRRDYEFNVNSPEFQDLELLVKTMRAAGADVQYVSIPSNGVWYDHIGIDKERRQAVYKKIHSTVVDNGGKIYDMTDKDYEKYVISDAVHIGWKGWVYMDEQIAKHMKGEPQPEVDKPKNEGHHHHHH”: the “soluble on expression in E. coli” value is “soluble”.

Turning to “WRKDIVLPKDQAKGVRPYNPKFKDSEYFSRYNALINDERLIEFAKKNNYKITFFPHPDIQQQIVDFEKHDYVEFADYNSSYQMLFNSSNIMITDFSSVAFDFAYEKKPVIYYQYEKSYHFKLDYYDYKKMGFGDVLENHNSLVDKVIYYMKNNSRMEDKYRKRVDNFFAYTDKNNRNRIYNAILE”, the “soluble on expression in E. coli” value is on record as “not soluble”.

“MSDGIPFAGEPADSHEAIMRATFRALREYGYAGLSIQRIADEADLSKSTFYHHFDGKEDLLLSFQEFILTEFNRIFQIESTGDPEQDIKTFVSLILDDFPDCVETPTKNAVLGSYVEMRAQAVQNPDFREKFTETDELFARQLVQIIEDGIEQGVFADVDPDTVSRFMITILDGVILQSATRNDNPVAEVRDTIDEYIEETLILNT”: the “soluble on expression in E. coli” value is given as “not soluble”.

For the sequence “MQEIIASVDHIKFDLEIAVEQQLGAQPLPFPGMDKSGAAVCEFFLKAACGKGGMCPFRHISGEKTVVCKHWLRGLCKKGDQCEFLHEYDMTKMPECYFYSKFGECSNKECPFLHIDPESKIKDCPWYDRGFCKHGPLCRHRHTRRVICVNYLVGFCPEGPSCKFMHPRFELPMGTTEQPPLPQQTQPPAKQRTPQVIGVMQSQNSSAGNRGPRPLEQVTCYKCGEKGHYANRCTKGHLAFLSGQ”, the “soluble on expression in E. coli” value is “soluble”.

Turning to “MKIEFFHDVICSFCFPMSDRMHEIQQEFPEIELIHRSFALGWSANDFETMFGSRAAVKEEVLTHWVHANQNDSKHRFNIEGMRKQRFDFPTSKNVLLAAKAAGYIGNQDTYWLLFDKLQEGLFVRSLNIEEPEVIEKLVKETTIDFALWKEAVASEAVWTAVQEDFALASAYGLQGVPALIINQKYLINGAVPKQQISQTIQKILAEEKQQQPLVSLTPSSEESASCEFKEGTWTCH”, the “soluble on expression in E. coli” value was “not soluble”.

Regarding “METKTVAITMGDPAGIGPEIIVKALSEDGLNGAPLVVIGCLATLKRLQAKGITPNVELRAIERVAEARFAPGIIHVIDEPLAQPEALEAGKVQAQAGDLAYRCVKRATELALRGDVQAIATAPLNKEALHLAGHNYPGHTELLATLTHSRDYAMVLYTDKLKVIHVSTHIALRKFLDTLSTARVETVIGIADTFLKRVGYVKPRIAVAGVNPHAGENGLFGDEETRILTPAITDARAKGMDVYGPCPPDTVFLQAYEGQYDMVVAMYHDQGHIPLKLLGFYDGVNITAGLPFIRTSADHGTAFDIAWTGKAKSESMAVSIKLAMQLA”, the “soluble on expression in E. coli” value is given as “soluble”.

Regarding “MGSDKIHHHHHHMGDLSFIAINDKCEVVLDNEIYKSNIQGIEEKYIAISLPVANGTYAIMHKGDMTEIWCYHDNQVYSFTSTVIERKKEDAIKLILISKPSYENIKRVQRRKNFRVDLIESIKYKVLNKNVVKTEIEKLKEASEEFSDGYMIDLSGGGLKIRIKQKPNVGDSIFVNLPIGDQKLFLISTCVRAIREVNGEYLCGLEFDDDIDERIREHIINYTFNIMRKHMKKR”, the “soluble on expression in E. coli” value was “not soluble”.

In the case of “MKALCLLLLPVLGLLVSSKTLCSMEEAINERIQEVAGSLIFRAISSIGLECQSVTSRGDLATCPRGFAVTGCTCGSACGSWDVRAETTCHCQCAGMDWTGARCCRVQPLEHHHHHH”, the “soluble on expression in E. coli” value is “not soluble”.

With “MSKLMQNPVLHELKKQASFFIKEKIKTARLAVTDVTAEELLTEEVTGSDHSSIDSRSMAAITRVSFEVDQFQRIVKILRQRMVVFDRKEWRGMCNTLSMLNHLLLNGPLSVFSEFQHERAIIEDAIKMEWIDERGFDCGLKVRNIAEKVLRLLEDDMFLKDERERNRKQSIGRITGFGNSSFVIHSETNNGRDGSLMLSNHQTCENDCIADDHPFVENEHKTAQLLLSSST”, the “soluble on expression in E. coli” value is given as “soluble”.

With “SVEVITHPGVNSNYLSKNLLRSIFGMRLRTWQDGLPVRVFVLPDDAPLHSTFTKQKLNIFPYQLRSAWDRMVYSGTGQAPFVVHTEEEMRARIASTPGAIGYLSGSMINDSVQVVHID”, the “soluble on expression in E. coli” value is “not soluble”.
